Experimental findings from PMC5159498, “IQGAP1 Interaction with RHO Family Proteins Revisited” (The Journal of Biological Chemistry, 2016) are described below.

Where a chain is given by its changes, count along the chain named. Names and notes keep the numbering of the source.

Data set [1] deals with the molecule itself. Nature of the data set: SEC; analytical SEC, Superdex 200 10/30, calibrated with standard proteins; 100 μM protein in 200 μl; 30 mM Tris/HCl pH 7.5, 150 mM NaCl, 5 mM MgCl2, 3 mM DTT; 0.5 ml/min.
Data set [2] has as its target T1, RAC1 (aa 1-179) (human, UniProt P63000 1-179). As to the kind of experiment: fluorescence polarisation; IQGAP1 variant titrated to mGppNHp-bound RHO protein (1 μM); equilibrium Kd (eKd), quadratic fit; 30 mM Tris/HCl pH 7.5, 150 mM NaCl, 5 mM MgCl2, 3 mM DTT, 25 °C. Conditions: both partners purified.
The target in data set [3] is T1, RAC1 (aa 1-179). As to the kind of experiment: stopped-flow fluorometry; mGppNHp-bound RHO protein (0.2 μM) rapidly mixed with IQGAP1 variant (2 μM, or 2-12 μM for kon); koff by displacement with 10 μM non-fluorescent GppNHp-bound GTPase; Kd = koff/kon; 30 mM Tris-HCl pH 7.5, 10 mM KH2PO4/K2HPO4, 5 mM MgCl2, 3 mM DTT. Conditions: both partners purified.

B1: IQGAP1 GRD2 (aa 962-1345) (domain or fragment, human, UniProt P46940 962-1345, looked up)
chain: SKEKREKLEAYQHLFYLLQTNPTYLAKLIFQMPQNKSTKFMDSVIFTLYNYASNQREEYLLLRLFKTALQEEIKSKVDQIQEIVTGNPTVIKMVVSFNRGARGQNALRQILAPVVKEIMDDKSLNIKTDPVDIYKSWVNQMESQTGEASKLPYDVTPEQALAHEEVKTRLDSSIRNMRAVTDKFLSAIVSSVDKIPYGMRFIAKVLKDSLHEKFPDAGEDELLKIIGNLLYYRYMNPAIVAPDAFDIIDLSAGGQLTTDQRRNLGSIAKMLQHAASNKMFLGDNAHLSIINEYLSQSYQKFRRFFQTACDVPELQDKFNVDEYSDLVTLTKPVIYISIGEIINTHTLLLDHQDAIAPEHNDPIHELLDDLGEVPTIESLIGESS
notes: human IQGAP1, GAP-related domain fragment GRD2, aa 962-1345, from the vector pMCSG7; source: E. coli (pLysS BL21(DE3), CodonPlusRIL or BL21(Rosetta)), purified (Ni-NTA, gel filtration)
Consider B1, for which, in data set [1], the “stoichiometry N” value came to 2.

B2: GST-fused IQGAP1 RGCT-CT (aa 1276-1657) (domain or fragment, human, UniProt P46940 1276-1657, looked up)
chain: QDKFNVDEYSDLVTLTKPVIYISIGEIINTHTLLLDHQDAIAPEHNDPIHELLDDLGEVPTIESLIGESSGNLNDPNKEALAKTEVSLTLTNKFDVPGDENAEMDARTILLNTKRLIVDVIRFQPGETLTEILETPATSEQEAEHQRAMQRRAIRDAKTPDKMKKSKSVKEDSNLTLQEKKEKIQTGLKKLTELGTVDPKNKYQELINDIARDIRNQRRYRQRRKAELVKLQQTYAALNSKATFYGEQVDYYKSYIKTCLDNLASKGKVSKKPREMKGKKSKKISLKYTAARLHEKGVLLEIEDLQVNQFKNVIFEISPTEEVGDFEVKAKFMGVQMETFMLHYQDLLQLQYEGVAVMKLFDRAKVNVNLLIFLLNKKFYGK
notes: human IQGAP1, RGCT and CT domains, aa 1276-1657; source: E. coli (pLysS BL21(DE3), CodonPlusRIL or BL21(Rosetta)), purified; not shown: GST, N-terminal, kept
On to B2, for which the binding result in data set [1] was “binds”.

B3: IQGAP1 RGCT (aa 1276-1575) (domain or fragment, human, UniProt P46940 1276-1575, looked up)
chain: QDKFNVDEYSDLVTLTKPVIYISIGEIINTHTLLLDHQDAIAPEHNDPIHELLDDLGEVPTIESLIGESSGNLNDPNKEALAKTEVSLTLTNKFDVPGDENAEMDARTILLNTKRLIVDVIRFQPGETLTEILETPATSEQEAEHQRAMQRRAIRDAKTPDKMKKSKSVKEDSNLTLQEKKEKIQTGLKKLTELGTVDPKNKYQELINDIARDIRNQRRYRQRRKAELVKLQQTYAALNSKATFYGEQVDYYKSYIKTCLDNLASKGKVSKKPREMKGKKSKKISLKYTAARLHEKGVLL
notes: human IQGAP1, RASGAP C-terminal domain, aa 1276-1575; source: E. coli (pLysS BL21(DE3), CodonPlusRIL or BL21(Rosetta)), purified
B3: in data set [1], the binding result is “binds”.

B4: IQGAP1 GRD1-RGCT wild type (aa 877-1558) (domain or fragment, human, UniProt P46940 877-1558, looked up)
chain: DQSDQDFQEELDLMKMREEVITLIRSNQQLENDLNLMDIKIGLLVKNKITLQDVVSHSKKLTKKNKEQLSDMMMINKQKGGLKALSKEKREKLEAYQHLFYLLQTNPTYLAKLIFQMPQNKSTKFMDSVIFTLYNYASNQREEYLLLRLFKTALQEEIKSKVDQIQEIVTGNPTVIKMVVSFNRGARGQNALRQILAPVVKEIMDDKSLNIKTDPVDIYKSWVNQMESQTGEASKLPYDVTPEQALAHEEVKTRLDSSIRNMRAVTDKFLSAIVSSVDKIPYGMRFIAKVLKDSLHEKFPDAGEDELLKIIGNLLYYRYMNPAIVAPDAFDIIDLSAGGQLTTDQRRNLGSIAKMLQHAASNKMFLGDNAHLSIINEYLSQSYQKFRRFFQTACDVPELQDKFNVDEYSDLVTLTKPVIYISIGEIINTHTLLLDHQDAIAPEHNDPIHELLDDLGEVPTIESLIGESSGNLNDPNKEALAKTEVSLTLTNKFDVPGDENAEMDARTILLNTKRLIVDVIRFQPGETLTEILETPATSEQEAEHQRAMQRRAIRDAKTPDKMKKSKSVKEDSNLTLQEKKEKIQTGLKKLTELGTVDPKNKYQELINDIARDIRNQRRYRQRRKAELVKLQQTYAALNSKATFYGEQVDYYKSYIKTCLDNLASKGKVSKKPREMKGKKSKK
notes: human IQGAP1, GRD and RGCT domains, lacks the last 99 amino acids, aa 877-1558; also called GRD1-RGCT^WT; IQGAP1^877-1558
B4: the “stoichiometry N” value in data set [1] was 2. In addition, the dissociation constant Kd in the data set with RAC1 (aa 1-179) [2] came out at 4.6 µM; with RAC1 (aa 1-179) [3], 2.81 µM.

B5: IQGAP1 GRD1-RGCT S1443E (aa 877-1558) (domain or fragment)
chain: B4 chain with S567E
notes: human IQGAP1 aa 877-1558 with the phosphomimetic mutation S1443E (printed as S1143E in the methods, S1443E everywhere else), from the vector pET46 EkLIC; source: E. coli (pLysS BL21(DE3), CodonPlusRIL or BL21(Rosetta)), purified (Ni-NTA, gel filtration)
Consider B5, for which the Kd in the data set with RAC1 (aa 1-179) [2] was found to be 26.7 µM; with RAC1 (aa 1-179) [3], 6.26 µM.

B6: IQGAP1 GRD1-RGCT S1441E (aa 877-1558) (domain or fragment)
chain: B4 chain with S565E
notes: human IQGAP1 aa 877-1558 with the phosphomimetic mutation S1441E, from the vector pET46 EkLIC; source: E. coli (pLysS BL21(DE3), CodonPlusRIL or BL21(Rosetta)), purified (Ni-NTA, gel filtration)
Regarding B6, the dissociation constant Kd with RAC1 (aa 1-179) [2] was 6.7 µM; in the data set with RAC1 (aa 1-179) [3] it was 3.21 µM.

B7: IQGAP1 GRD1-CT (aa 863-1657) (domain or fragment)
chain: DPPMVVVRKFVHLLDQSDQDFQEELDLMKMREEVITLIRSNQQLENDLNLMDIKIGLLVKNKITLQDVVSHSKKLTKKNKEQLSDMMMINKQKGGLKALSKEKREKLEAYQHLFYLLQTNPTYLAKLIFQMPQNKSTKFMDSVIFTLYNYASNQREEYLLLRLFKTALQEEIKSKVDQIQEIVTGNPTVIKMVVSFNRGARGQNALRQILAPVVKEIMDDKSLNIKTDPVDIYKSWVNQMESQTGEASKLPYDVTPEQALAHEEVKTRLDSSIRNMRAVTDKFLSAIVSSVDKIPYGMRFIAKVLKDSLHEKFPDAGEDELLKIIGNLLYYRYMNPAIVAPDAFDIIDLSAGGQLTTDQRRNLGSIAKMLQHAASNKMFLGDNAHLSIINEYLSQSYQKFRRFFQTACDVPELQDKFNVDEYSDLVTLTKPVIYISIGEIINTHTLLLDHQDAIAPEHNDPIHELLDDLGEVPTIESLIGESSGNLNDPNKEALAKTEVSLTLTNKFDVPGDENAEMDARTILLNTKRLIVDVIRFQPGETLTEILETPATSEQEAEHQRAMQRRAIRDAKTPDKMKKSKSVKEDSNLTLQEKKEKIQTGLKKLTELGTVDPKNKYQELINDIARDIRNQRRYRQRRKAELVKLQQTYAALNSKATFYGEQVDYYKSYIKTCLDNLASKGKVSKKPREMKGKKSKKISLKYTAARLHEKGVLLEIEDLQVNQFKNVIFEISPTEEVGDFEVKAKFMGVQMETFMLHYQDLLQLQYEGVAVMKLFDRAKVNVNLLIFLLNKKFYGK
notes: human IQGAP1, GRD, RGCT and CT domains, aa 863-1657; The GST tag was cleaved 'if needed'; also called C-terminal half of IQGAP1; C-terminal 795 amino acids of IQGAP1
With B7, the results for the dissociation constant (Kd) with RAC1 (aa 1-179) [2] and with RAC1 (aa 1-179) [3] were 5.53 µM and 0.94 µM, respectively.
